According to US20100034831A1 (DOMANTIS, published 2010):

T1: mouse TNFR1 on L929 fibroblasts (mouse, UniProt P25118 30-454)
T1 sequence (looked up): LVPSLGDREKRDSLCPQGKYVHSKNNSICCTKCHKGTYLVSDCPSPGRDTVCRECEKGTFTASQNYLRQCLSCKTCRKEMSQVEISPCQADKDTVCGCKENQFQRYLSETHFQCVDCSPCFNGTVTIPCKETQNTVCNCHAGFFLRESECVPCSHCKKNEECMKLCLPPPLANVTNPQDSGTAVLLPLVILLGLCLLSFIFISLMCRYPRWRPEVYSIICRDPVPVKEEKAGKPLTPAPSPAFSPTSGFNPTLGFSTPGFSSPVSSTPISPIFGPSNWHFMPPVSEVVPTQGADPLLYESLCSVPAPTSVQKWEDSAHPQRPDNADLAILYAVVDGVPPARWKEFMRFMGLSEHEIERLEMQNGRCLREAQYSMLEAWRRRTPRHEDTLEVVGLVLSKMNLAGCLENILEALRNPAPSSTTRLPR

B1: TAR2m-21-23 (anti-TNFR1 dAb monomer) (other)
VH: EVQLLESGGGLVQPGGSLRLSCAASGFTFNRYSMGWLRQAPGKGLEWVSRIDSYGRGTYYEDPVKGRFSISRDNSKNTLYLQMNSLRAEDTAVYYCAKISQFGSNAFDYWGQGTQVTVSS
B2: PEG DOM1M (anti-TNFR1 dAb monomer TAR2m21-23 PEGylated with a 40 kDa polyethyleneglycol) (other)
VH: B1 VH
modifications: PEGylated with a 40 kDa polyethyleneglycol (attachment site not stated)
B3: TAR2m-15-12 (anti-TNFR1 dAb) (other)
chain: DIQMTQSPSSLSASVGDRVTITCRASQYIHTSVQWYQQKPGKAPKLLIYGSSRLHSGVPSRFSGSGSGTDFTLTISSLQPEDFATYYCQQNHYSPFTYGQGTKVEIKR

Target: T1, mouse TNFR1 on L929 fibroblasts
Experiment: cell-based or functional assay

Binder | Potency, ND50 L929 assay
B1 | 1 nM
B2 | 1 nM
B3 | 5 nM
